In article PMC8715031, “Fusion of Chitin-Binding Domain From Chitinolyticbacter meiyuanensis SYBC-H1 to the Leaf-Branch Compost Cutinase for Enhanced PET Hydrolysis” (Frontiers in Bioengineering and Biotechnology, 2021) one finds Km, kcat and kcat/Km data, which are given here for 2 proteins.

Substrate in this data set: CCCC(=O)Oc1ccc([N+](=O)[O-])cc1
Nature of the data set: purified protein. Type of data set: biochemical, unidentified prokaryotic organism. The settings on record: 50 mM phosphate buffer pH 8.0, isopropanol as substrate solvent, temperature not stated.

B1: LCC^ICCG (unidentified prokaryotic organism; D238C/F243I/S283C/Y127G) (protein)
chain: QSNPYQRGPNPTRSALTADGPFSVATYTVSRLSVSGFGGGVIYYPTGTSLTFGGIAMSPGYTADASSLAWLGRRLASHGFVVLVINTNSRFDGPDSRASQLSAALNYLRTSSPSAVRARLDANRLAVAGHSMGGGGTLRIAEQNPSLKAAVPLTPWHTDKTFNTSVPVLIVGAEADTVAPVSQHAIPFYQNLPSTTPKVYVELCNASHIAPNSNNAAISVYTISWMKLWVDNDTRYRQFLCNVNDPALCDFRTNNRHCQ
notes: ICCG variant of LCC, synthetic gene in pET-29a, C-terminal His6-tag, E. coli BL21(DE3), Ni-NTA purified
As for B1, the Km is 126.3 µM, the turnover number (kcat) was determined as 67.5 s⁻¹ and the kcat/Km amounted to 534000 M⁻¹ s⁻¹.

B2: LCC^ICCG-ChBD (unidentified prokaryotic organism; D238C/F243I/S283C/Y127G) (protein)
chain: B1 chain
notes: C-terminal His6-tag; pET-29a, E. coli BL21(DE3), Ni-NTA purified; Chitinolyticbacter meiyuanensis SYBC-H1
For B2, the Km stood at 141.8 µM, the kcat was 68.4 s⁻¹ and the specificity constant (kcat/Km) is 404000 M⁻¹ s⁻¹.
